For experiment [1], the target named is monkey MSLN full-length protein on HEK293T cells (monkey). The experiment in a line: FACS, HEK293T-monkey-MSLN cells, antibody 0.8 nM. In general terms: Flow cytometry measures light scatter and fluorescence of single cells or particles in a stream.
For experiment [2] the target is unchanged. The experiment can be described thus: FACS, HEK293T-monkey-MSLN cells, antibody 0.16 nM.
Experiment [3] has the same target. The experiment in a line: FACS, HEK293T-monkey MSLN cells.
For experiment [4] the target is unchanged. The experiment can be described thus: FACS, HEK293T-monkey-MSLN cells, antibody 4 nM.
For experiment [5] the target is unchanged. The experiment in a line: FACS, HEK293T-monkey-MSLN cells, antibody 20 nM.
For experiment [6] the target is unchanged. The experiment in a line: FACS, HEK293T-monkey-MSLN cells, antibody 0.032 nM.
For experiment [7] the target is unchanged. The experiment in a line: FACS, HEK293T-monkey-MSLN cells, antibody 0.0064 nM.
Experiment [8] has the same target. The experiment can be described thus: FACS, HEK293T-monkey-MSLN cells, antibody 100 nM.
Experiment [9] shares this target. The experiment in a line: FACS, HEK293T-monkey-MSLN cells, antibody 0.00128 nM.
Experiment [10] concerns the target human MSLN-R3 protein on HEK293T cells (human) (UniProt Q13421). The experiment in a line: FACS, HEK293T-hMSLN R3 cells.

human MSLN-R3 protein on HEK293T cells (human), sequence (Q13421 495-614, form in doubt): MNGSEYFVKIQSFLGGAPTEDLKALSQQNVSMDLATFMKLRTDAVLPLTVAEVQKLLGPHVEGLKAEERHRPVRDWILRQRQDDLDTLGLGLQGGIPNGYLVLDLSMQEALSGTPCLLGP

B1: Tab106 (YP218, hIgG1) (antibody, V domains shown)
VH: QQQLEESGGGLVKPEGSLTLTCKASGFDLGFYFYACWVRQAPGKGLEWIACIYTAGSGSTYYASWAKGRFTISKASSTTVTLQMTSLAAADTATYFCARSTANTRSTYYLNLWGPGTLVTVSS
VL: DVVMTQTPASVSEPVGGTVTIKCQASQRISSYLSWYQQKPGQRPKLLIFGASTLASGVPSRFKGSGSGTEYTLTISDLECADAATYYCQSYAYFDSNNWHAFGGGTEVVVRT
Usually EC50 stands for the midpoint of the concentration-response curve. For the molecule B1, the FACS signal (MFI) came out at 860 in experiment [1]; 313 in [2]; 2440 in experiment [4]; 2660 in experiment [5]; 142 in experiment [6]; 100 in experiment [7]. Also, the FACS signal (MFI) was 3290 in experiment [8] and 90 in [9]. The molecule also yielded an EC50 in experiment [3] of 1.15 nM. In experiment [3], this molecule yielded a Max MFI of 8640. In experiment [10], this molecule gave a Mean Fluorescence Intensity of Cells of 1690.

B2: Tab107 (YP3, hIgG1) (antibody, V domains shown)
VH: QEQLVESGGGLVQPGASLTLTCTASGIDFSRYYMCWVRQAPGKGLEGIACIYIGGSGSTYYASWAKGRFTISKASSTTVTLQMTSLTAADTATYFCARGTNLNYIFRLWGPGTLVTVSS
VL: DVVMTQTPSPVSAAVGGTVTIKCQASQSINNGLAWYQQKPGQPPRLLIYSASNLESGVPSRFKGSGSGTEFTLTISDLECDDAATYYCQCIWDGNSYVNAFGGGTEVVVRT
As for B2, the FACS signal (MFI) in experiment [1] came to 918; in experiment [2] it was 288; in [4], 3140; in experiment [5] it was 3650; in experiment [6], 131; in experiment [7], 96. For the same molecule, the FACS signal (MFI) in experiment [8] was 3930; in [9], 119.

B3: Tab020 (YP223, rabbitIgG1) (antibody, V domains shown)
VH: QEQLEESGGDLVQPEGSLTLTCKASGLDFSSSYWICWVRQAPGKGLEWIGCRHTFTANTWSASWVNGRFTISRSTSLGTVDLKMTSLTAADTATYFCARDESNNDGWDFKLWGPGTLVTVSS
VL: AYDMTQTPASVSAAVGGTVTIKCQASQSISNYLAWYQQKPGQPPKLLIYQASTLAPGVSSRFKGSGSGTEFTLTISGVECADAATYYCQQGYTSSNVENVFGGGTGVVVGD
In the case of B3, the FACS signal (MFI) in experiment [1] turned out to be 88; in experiment [2] it was 86; in [4], 90; in experiment [5], 100; in experiment [6], 85; in experiment [7], 85. Further, the FACS signal (MFI) came out at 126 in experiment [8] and 85 in experiment [9].

The record behind these values is patent publication US20240124563A1.
